# In patent US20260226125A1 (MEDICENNA THERAPEUTICS, published 2026):
# Where a chain is given by its changes, count along the chain named. Names and notes keep the numbering of the source.
# B1: MDNA209FA-Fc (2:1) (Fc fusion)
# chain: APTSSSTKKTQLQLEHLRLDLEMILNGINNYKNPKLTRMLTAKFYMPKKATELKHLQCLEEELKPLEEVLNLAQSKNFHFDPRDVVSNINVFVLELKGSETTFMCEYADETATIVEFLNRWITFCTSIIRTLT
# notes: MDNA209 plus F42A, fused to Fc; also called TP40451F; not shown: linker (if any) and Fc region
# B2: MDNA209-Fc (2:1) (Fc fusion)
# chain: B1 chain with A42F
# notes: IL-2 mutein MDNA209 (L18R, Q22E, L80F, R81D, L85V, I86V, I92F, Q126T, S130R) fused to Fc; (2:1) read as two muteins per Fc dimer; order from the name; also called MDNA209 (2:1) Fc; Construct #8; not shown: linker (if any) and Fc region
# B3: MDNA209 (free) (ligand)
# chain: B1 chain with A42F
# B4: MDNA209FEY-Fc (2:1) (Fc fusion)
# chain: B1 chain with Y45A
# notes: MDNA209 plus F42A, Y45A, fused to Fc; also called TP40452F; not shown: linker (if any) and Fc region
# B5: MDNA209FEAA-Fc-A11 (2:1:2) (Fc fusion)
# chain: B1 chain with E62A
# notes: Bispecific format: IL-2 antagonist mutein with FEAA, Fc, and IL-13 mutein A11; also called Construct #10; not shown: linker (if any), Fc, linker and IL-13 mutein A11
# B6: MDNA209(3)FA-Fc (Fc fusion)
# chain: B1 chain with R130S
# notes: MDNA209(3) plus F42A fused to Fc, made in CHO; not shown: linker (if any) and Fc region
# B7: MDNA209(3)-Fc (Fc fusion)
# chain: B1 chain with A42F, R130S
# notes: MDNA209(3) (L18R, Q22E, L80F, R81D, L85V, I86V, I92F, Q126T) fused to Fc, made in CHO; not shown: linker (if any) and Fc region
# B8: MDNA209FEAA-Fc (2:1) (Fc fusion)
# chain: B1 chain with E62A
# notes: MDNA209 plus F42A, E62A, fused to Fc; also called MDN209FEAA-Fc; TP36871F; not shown: linker (if any) and Fc region
# B9: MDNA209(3)FEAA-Fc (2:1) (Fc fusion)
# chain: B1 chain with E62A, R130S
# notes: MDNA209(3) (no S130R) plus F42A, E62A, fused to Fc; also called TP36872F; not shown: linker (if any) and Fc region
# B10: MDNA209FEAA (free) (ligand)
# chain: B1 chain with E62A
# Experiments:
# [1] = target: T1, human CD122 (IL-2Rβ) (human, UniProt P14784 27-240); experiment: SPR, drawn table 'Individual Receptor Subunit Binding', column 'Affinity for IL-2Rβ Kd (nM)'
# T1 construct: Receptor reagent used in SPR; also called interleukin 2 receptor beta
# T1 sequence (looked up): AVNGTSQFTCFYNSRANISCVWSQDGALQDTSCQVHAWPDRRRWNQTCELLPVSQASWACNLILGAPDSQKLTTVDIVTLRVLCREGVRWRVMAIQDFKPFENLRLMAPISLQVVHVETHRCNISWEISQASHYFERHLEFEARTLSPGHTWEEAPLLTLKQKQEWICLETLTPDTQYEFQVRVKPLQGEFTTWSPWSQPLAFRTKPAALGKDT
# [2] = target: T2, human CD25 (IL-2Rα) (human, UniProt P01589 22-240, limits assumed); experiment: SPR, drawn table 'Individual Receptor Subunit Binding', column 'Affinity for IL-2Rα Kd (nM)'
# T2 construct: Receptor reagent used in SPR; also called interleukin 2 receptor alpha
# T2 sequence (looked up): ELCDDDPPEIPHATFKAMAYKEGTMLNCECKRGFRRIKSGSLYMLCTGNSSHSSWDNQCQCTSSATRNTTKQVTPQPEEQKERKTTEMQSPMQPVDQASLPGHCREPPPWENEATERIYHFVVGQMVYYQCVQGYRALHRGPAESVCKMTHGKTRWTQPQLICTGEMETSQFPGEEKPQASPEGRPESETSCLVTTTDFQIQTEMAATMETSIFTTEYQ
# [3] = target: T1, human CD122 (IL-2Rβ); experiment: SPR; 1:1 binding fit
# Procedure: (§1) Binding interactions between proteins using purified preparations or complex mixtures can be examined quantitatively in their native state and can assess binding specificity, stoichiometry, concentration, thermodynamics, kinetics (association, kₐ, and dissociation, kd, rate constants), and overall affinity (equilibrium dissociation constant, KD=kd/kₐ). Sensor chips (CM5) were activated (420 s at a flow rate of 10 μL/min) and 50 μg/mL of Anti-histidine antibody (in Immobilization buffer 10 mM Sodium Acetate (pH4.5)) was injected (420 s at a flow rate of 10 μL/min). For ligand capturing, samples were diluted to 5 μg/mL (HEPES, with 0.005% Tween-20, ph7.4) and injected (flow rate of 10 μL/min) to reach a capture level of ~200 RU. Receptors were diluted and up to 8 concentrations as indicated and injected (flow rate of 30 μL/min) for an association phase of 120 seconds, followed by 300 seconds dissociation.
# [4] = target: T2, human CD25 (IL-2Rα); experiment: SPR sensorgram, legend 0.195 to 50 nM
# Procedure: as §1
# [5] = target: T3, high affinity IL-2 receptor (human IL-2Rα, IL-2Rβ, IL-2Rγ) on HEK-Blue IL-2 reporter cells (human, UniProt P01589 22-272; P14784 27-551; P31785 23-369); experiment: cell-based or functional assay
# T3 sequence (looked up) 1: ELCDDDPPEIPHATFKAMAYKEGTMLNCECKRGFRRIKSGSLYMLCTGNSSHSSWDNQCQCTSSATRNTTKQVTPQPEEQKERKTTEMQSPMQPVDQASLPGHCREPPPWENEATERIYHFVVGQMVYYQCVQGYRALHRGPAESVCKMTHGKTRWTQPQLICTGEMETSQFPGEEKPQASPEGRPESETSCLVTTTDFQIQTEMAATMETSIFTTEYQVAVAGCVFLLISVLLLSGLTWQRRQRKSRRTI
# T3 sequence (looked up) 2: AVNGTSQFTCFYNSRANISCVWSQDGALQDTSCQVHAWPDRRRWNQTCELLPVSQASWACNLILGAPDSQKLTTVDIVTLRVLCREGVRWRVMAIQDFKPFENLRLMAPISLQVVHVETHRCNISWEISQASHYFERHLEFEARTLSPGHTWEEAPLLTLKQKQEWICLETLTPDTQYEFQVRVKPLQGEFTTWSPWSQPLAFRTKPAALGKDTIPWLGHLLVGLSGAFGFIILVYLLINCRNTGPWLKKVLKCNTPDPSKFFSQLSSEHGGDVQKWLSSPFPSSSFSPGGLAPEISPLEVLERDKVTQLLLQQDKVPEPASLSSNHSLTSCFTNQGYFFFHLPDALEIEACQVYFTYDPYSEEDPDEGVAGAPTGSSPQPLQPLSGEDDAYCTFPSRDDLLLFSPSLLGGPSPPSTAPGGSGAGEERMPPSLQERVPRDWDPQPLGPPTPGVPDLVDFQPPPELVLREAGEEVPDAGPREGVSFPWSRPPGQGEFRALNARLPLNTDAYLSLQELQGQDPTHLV
# T3 sequence (looked up) 3: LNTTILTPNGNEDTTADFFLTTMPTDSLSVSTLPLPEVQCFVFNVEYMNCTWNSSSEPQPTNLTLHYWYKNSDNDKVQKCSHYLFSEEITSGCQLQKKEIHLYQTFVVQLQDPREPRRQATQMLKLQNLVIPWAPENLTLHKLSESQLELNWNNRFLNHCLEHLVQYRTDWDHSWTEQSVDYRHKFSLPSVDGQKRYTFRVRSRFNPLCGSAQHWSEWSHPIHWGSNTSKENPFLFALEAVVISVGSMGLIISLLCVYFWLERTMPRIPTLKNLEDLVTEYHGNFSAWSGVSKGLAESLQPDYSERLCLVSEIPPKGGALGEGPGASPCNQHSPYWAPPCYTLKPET
# [6] = target: T2, human CD25 (IL-2Rα); experiment: SPR; steady state affinity
# Procedure: as §1
# [7] = target: T1, human CD122 (IL-2Rβ); experiment: SPR; 1:1 binding fit; remark: listed apart in the source
# [8] = target: T2, human CD25 (IL-2Rα); experiment: SPR; 1:1 binding fit
# [9] = target: T2, human CD25 (IL-2Rα); experiment: SPR sensorgram, series 62.5 to 1.953 nM
# Procedure: as §1
# [10] = target: T2, human CD25 (IL-2Rα); experiment: SPR; steady state affinity; remark: listed apart in the source
# [11] = target: T4, γc (CD132, IL-2Rγ, common gamma chain) (human, UniProt P31785 23-369); experiment: cell-based or functional assay
# T4 sequence (looked up): T3 sequence (looked up) 3
# [12] = target: T4, γc (CD132, IL-2Rγ, common gamma chain); experiment: cell-based or functional assay; remark: listed apart in the source
# [13] = target: T2, human CD25 (IL-2Rα); experiment: SPR sensorgram, no concentration legend
molecule,measurement,setting,value
MDNA109-Fc (Fc fusion),Kd,[1],2.7 nM
same,Kd,[2],14 nM
B1,Kd,[3],5.51 nM
same,binding result,[4],no binding (tested: 50 nM)
B2,Kd,[3],3.91 nM
same,"Fold against IL-2-Fc alone, HEK-Blue IL-2 reporter assay, antagonist format",[5],15.1 fold
same,"fold decrease in Fold against hIL-2, HEK-Blue IL-2 reporter assay, fixed agonist format",[5],210 fold
same,Kd,[6],39.1 nM
B3,Kd,[7],0.537 nM
same,Kd,[8],31.3 nM
B4,Kd,[3],4.99 nM
same,binding result,[4],no binding (tested: 50 nM)
B5,Kd,[3],4.59 nM
same,binding result,[9],no binding (tested: 62.5 nM)
B6,Kd,[7],3.79 nM
same,Kd,[10],4610 nM
B7,Kd,[7],3.25 nM
same,Kd,[8],35.8 nM
B8,Kd,[3],4.94 nM
same,"EC50 (agonist activity), HEK-Blue IL-2 reporter assay",[11],> 107 nM
same,"Fold against hIL-2 (agonist activity), HEK-Blue IL-2 reporter assay",[11],~2800 fold
same,binding result,[9],no binding (tested: 62.5 nM)
B9,Kd,[3],3.75 nM
same,"fold decrease in agonist activity, HEK-Blue IL-2 reporter assay",[12],~60 fold
same,binding result,[9],no binding (tested: 62.5 nM)
B10,binding result,[13],no binding
same,Kd,[7],1.59 nM
